The values that follow are results of earlier work, collected in PMC9303997.

In one series the target is VPS4B MIT (Homo sapiens) (UniProt O75351).
The target of series [1] is spastin MIT (Homo sapiens) (UniProt Q9UBP0).
Sequence of spastin MIT (Homo sapiens) (Q9UBP0 117-198): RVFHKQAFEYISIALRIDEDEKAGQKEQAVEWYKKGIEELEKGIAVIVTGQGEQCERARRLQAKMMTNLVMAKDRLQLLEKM

Sequence of VPS4B MIT (Homo sapiens) (O75351 1-85): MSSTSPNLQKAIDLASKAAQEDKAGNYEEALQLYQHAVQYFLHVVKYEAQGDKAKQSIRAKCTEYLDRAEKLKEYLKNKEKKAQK

For IST1 MIM (from UniProt P53990), the Kd in the series with VPS4B MIT (Homo sapiens) is 12 nM; in series [1] it was 0.5 nM.
